Results taken from IntAct's records for PubMed 14732713.

B1: Rho-related GTP-binding protein RhoN (Homo sapiens), P52198 (parent)
chain: MEGQSGRCKIVVVGDAECGKTALLQVFAKDAYPGSYVPTVFENYTASFEIDKRRIELNMWDTSGSSYYDNVRPLAYPDSDAVLICFDISRPETLDSVLKKWQGETQEFCPNAKVVLVGCKLDMRTDLATLRELSKQRLIPVTHEQGTVLAKQVGAVSYVECSSRSSERSVRDVFHVATVASLGRGHRQLRRTDSRRGMQRSAQLSGRPDRGNEGEIHKDRAKSCNLM
partner: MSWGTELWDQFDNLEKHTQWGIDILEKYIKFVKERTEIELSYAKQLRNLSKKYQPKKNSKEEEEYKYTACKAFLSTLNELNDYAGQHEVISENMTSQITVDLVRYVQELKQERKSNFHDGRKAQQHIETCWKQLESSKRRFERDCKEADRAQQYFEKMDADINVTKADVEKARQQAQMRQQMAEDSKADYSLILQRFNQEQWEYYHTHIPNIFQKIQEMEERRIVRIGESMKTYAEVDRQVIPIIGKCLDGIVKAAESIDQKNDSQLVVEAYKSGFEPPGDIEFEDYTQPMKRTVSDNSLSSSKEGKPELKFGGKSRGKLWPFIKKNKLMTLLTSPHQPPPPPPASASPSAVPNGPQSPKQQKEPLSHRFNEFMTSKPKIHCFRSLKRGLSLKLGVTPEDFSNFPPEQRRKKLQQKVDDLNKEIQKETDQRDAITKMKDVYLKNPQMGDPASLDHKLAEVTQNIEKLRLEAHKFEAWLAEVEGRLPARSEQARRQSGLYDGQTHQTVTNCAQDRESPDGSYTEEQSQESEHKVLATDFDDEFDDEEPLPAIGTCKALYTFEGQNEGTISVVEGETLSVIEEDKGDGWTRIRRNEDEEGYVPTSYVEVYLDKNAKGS

Variants of: B1
Conditions: with fnbp1_rat Fnbp1, Q8R511

effect of a mutation on the interaction | Variant
increasing interaction | MEGQSGRCKIVVVGDVECGKTALLQVFAKDAYPGSYVPTVFENYTASFEIDKRRIELNMWDTSGSSYYDNVRPLAYPDSDAVLICFDISRPETLDSVLKKWQGETQEFCPNAKVVLVGCKLDMRTDLATLRELSKQRLIPVTHEQGTVLAKQVGAVSYVECSSRSSERSVRDVFHVATVASLGRGHRQLRRTDSRRGMQRSAQLSGRPDRGNEGEIHKDRAKSCNLM [A16V]
